This is an account of results in patent US20260250412A1 (GENEQUANTUM HEALTHCARE SUZHOU, published 2026).

The chains are these.
B1: ADC-2 (antibody, human IgG1, kappa)
heavy: not shown
light: DIQLTQSPSSLSASVGDRVSITCKASQDVSIAVAWYQQKPGKAPKLLIYSASYRYTGVPDRFSGSGSGTDFTLTISSLQPEDFAVYYCQQHYITPLTFGAGTKVEIKRTVAAPSVFIFPPSDEQLKSGTASVVCLLNNFYPREAKVQWKVDNALQSGNSQESVTEQDSKDSTYSLSSTLTLSKADYEKHKVYACEVTHQGLSSPVTKSFNRGECGALPETGG
B2: GQhRS7 (antibody, human IgG1, kappa)
heavy: not shown
light: DIQLTQSPSSLSASVGDRVSITCKASQDVSIAVAWYQQKPGKAPKLLIYSASYRYTGVPDRFSGSGSGTDFTLTISSLQPEDFAVYYCQQHYITPLTFGAGTKVEIKRTVAAPSVFIFPPSDEQLKSGTASVVCLLNNFYPREAKVQWKVDNALQSGNSQESVTEQDSKDSTYSLSSTLTLSKADYEKHKVYACEVTHQGLSSPVTKSFNRGECGALPETGG
notes: unconjugated
B3: Trodelvy (antibody, human IgG1, kappa)
heavy: not shown
light: DIQLTQSPSSLSASVGDRVSITCKASQDVSIAVAWYQQKPGKAPKLLIYSASYRYTGVPDRFSGSGSGTDFTLTISSLQPEDFAVYYCQQHYITPLTFGAGTKVEIKRTVAAPSVFIFPPSDEQLKSGTASVVCLLNNFYPREAKVQWKVDNALQSGNSQESVTEQDSKDSTYSLSSTLTLSKADYEKHKVYACEVTHQGLSSPVTKSFNRGEC
modifications: SN-38 conjugated; sites not stated
notes: also called IMMU-132
B4: hRS7 (from TRODELVY) (antibody, human IgG1, kappa)
heavy: not shown
light: DIQLTQSPSSLSASVGDRVSITCKASQDVSIAVAWYQQKPGKAPKLLIYSASYRYTGVPDRFSGSGSGTDFTLTISSLQPEDFAVYYCQQHYITPLTFGAGTKVEIKRTVAAPSVFIFPPSDEQLKSGTASVVCLLNNFYPREAKVQWKVDNALQSGNSQESVTEQDSKDSTYSLSSTLTLSKADYEKHKVYACEVTHQGLSSPVTKSFNRGEC
notes: expressed in HEK293F; also called Trodelvy's antibody
B5: Ab16 (antibody, human IgG1, kappa, V domains shown)
VH: QVQLQQSGSELKKPGASVKVSCKASGYTFTAAGMNWVKQAPGQGLKWMGWINTYTGEPTYTDDFKGRFAFSLDTSVSTAYLQISSLKADDTAVYFCARGGFGSSYWYFDVWGQGSLVTVSS
VL: DIQLTQSPSSLSASVGDRVSITCKASQDVSIAVAWYQQKPGKAPKLLIYSASYRYTGVPDRFSGSGSGTDFTLTISSLQPEDFAVYYCQQHYITPLTFGAGTKVEIKR
B6: Ab13 (antibody, human IgG1, kappa, V domains shown)
VH: QVQLQQSGSELKKPGASVKVSCKASGYTFTNAGMNWVKQAPGQGLKWMGWINTDSGEPTYTDDFKGRFAFSLDTSVSTAYLQISSLKADDTAVYFCARGGFGSSYWYFDVWGQGSLVTVSS
VL: DIQLTQSPSSLSASVGDRVSITCKASQDVSIAVAWYQQKPGKAPKLLIYSASYRYTGVPDRFSGSGSGTDFTLTISSLQPEDFAVYYCQQHYITPLTFGAGTKVEIKR
B7: Datopotamab (antibody, human IgG1, kappa, V domains shown)
VH: QVQLVQSGAEVKKPGASVKVSCKASGYTFTTAGMQWVRQAPGQGLEWMGWINTHSGVPKYAEDFKGRVTISADTSTSTAYLQLSSLKSEDTAVYYCARSGFGSSYWYFDVWGQGTLVTVSS
VL: DIQMTQSPSSLSASVGDRVTITCKASQDVSTAVAWYQQKPGKAPKLLIYSASYRYTGVPSRFSGSGSGTDFTLTISSLQPEDFAVYYCQQHYITPLTFGQGTKLEIKR
notes: expressed in HEK293F; also called DS1062a Ab; DS1062's antibody

One experiment deals with T1, recombinant extracellular domain of human TROP2 (human, UniProt P09758 27-274).
T1 construct: extracellular domain; also called Human Trop 2 ECD; Trop2 ECD
T1 sequence (looked up): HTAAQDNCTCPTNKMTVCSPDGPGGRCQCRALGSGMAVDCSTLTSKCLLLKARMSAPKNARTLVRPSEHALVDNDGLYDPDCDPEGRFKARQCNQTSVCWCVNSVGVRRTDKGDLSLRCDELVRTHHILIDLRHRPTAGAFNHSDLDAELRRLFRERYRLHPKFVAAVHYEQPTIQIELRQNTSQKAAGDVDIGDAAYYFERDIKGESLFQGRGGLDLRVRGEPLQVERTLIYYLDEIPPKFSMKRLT
Description: ELISA on plate-coated human Trop2 ECD (0.5 ug/mL), detection with goat anti-human Fc-HRP, TMB, absorbance at 450 nm. The method, then: Human Trop 2 ECD at concentration of 0.5 μg/mL was coated on 96-well plates at 4° C. for overnight. The plates were then blocked with 3% BSA-PBST for 1 h at room temperature. […] After incubation goat anti-human FC secondary antibody (HRP) (Sinobiological, SSA001) was added at a ratio of 1:100000 and incubated at room temperature for 60 min again. Following the wash, the plate was treated with TMB solution (Sigma, T0440) as an HRP substrate, and the reaction was stopped with 1 M H₂SO₄. The absorbance for each well was detected at 450 nm wavelength.
In general terms: An ELISA detects its analyte on a solid surface through an enzyme-linked reagent.
As usually defined, the EC50 (read off the curve) is the concentration needed to bring the measured effect to its halfway point. In the case of B1, the “EC50 (read off the curve)” value is about 0.02 µg/mL.
On the same count and under the same terms, for B2 the value was about 0.02 µg/mL.
On to B3, for which the “EC50 (read off the curve)” value is about 0.02 µg/mL.

In another experiment the target is T1, recombinant extracellular domain of …. The experiment can be described thus: SPR (Biacore T200), antibody captured on Protein A chip, TROP2 ECD as analyte, 1:1 model, 25 C. The method, then:
Binding kinetics and affinity analysis were performed. Surface Plasmon Resonance (SPR) analysis was performed on a Biacore T200 (GE healthcare) with a Sensor Chip Protein A (GE healthcare) following manufacturer's instructions. All measurements were performed at 25° C. in the HBS-EP⁺ buffer (10 mM HEPES, pH 7.4, 150 mM NaCl, 3 mM EDTA, and 0.05% surfactant P20). About 110-140 RU (Resonance unit) of each of the purified antibodies was captured on flow cells 2 and 4 (i.e., the reaction surface) of the sensor chip, respectively. Flow cells 1 and 3 were treated with the HBS-EP⁺ buffer to serve as reference surfaces.
Serial dilutions of the recombinant extracellular domain of human TROP2 (i.e., the analyte) (Acrobio system) (243, 81, 27, 9, 3, 1, 0.333, and 0.111 nM, respectively) were prepared in HBS-EP⁺ buffer. Capturing of the antibodies was followed by a three-minute injection (association phase) of serial dilutions of TROP2 at a flow rate of 30 μL/min and ten minutes of buffer flow (dissociation phase). The chip surface was regenerated by two pulses of 30-second injection of 10 mM Glycine-HCl pH 1.5 at a flow rate of 50 μL/min. The collected data were processed on a Biacore T200 Evaluation software using methods known in the art, comprising the following steps: (1) setting the response on the y-axis and the start of the injection on the x-axis to zero, (2) performing double referencing by firstly subtracting the reference surface data from the reaction surface data to get the analyte injection curves, and then subtracting the buffer injection curves from the analyte injection curves, and (3) performing the kinetic analysis using the 1:1 binding model with a global fit.
A general note: In SPR one partner is held on a chip, and binding of the other changes the refractive index at the surface.
What is called Kd is the free concentration of one partner at which half of the binding sites on the other are occupied at equilibrium, for simple one-to-one binding. As to B4, the Kd turned out to be 1.28 nM.
As for B5, the Kd was 13.1 nM.
For the molecule B6, the Kd was 8.16 nM.
Still for that read-out and setting: for B7 the value was 13 nM.
